Paper PMC6376029, “Diversity within the adenovirus fiber knob hypervariable loops influences primary receptor interactions” (Nature Communications, 2019)

What was measured:
[1] = target: Recombinant Human Desmoglein-2 Fc Chimera Protein (human) (UniProt Q14126); test: SPR; BIAcore 3000, CM5 chip, about 5000 RU of receptor amine-coupled; equilibrium binding analysis of HAdV-D26K (367 uM) and HAdV-B3K (3 uM as printed), 5x 1:3 serial dilutions; 1:1 Langmuir fit; 25 C, PBS, 30 ul/min
[2] = target: Recombinant Human CD46 Protein (His Tag) (human) (UniProt P15529); test: as above
[3] = target: HAdV-D26 fiber-knob protein (human adenovirus D serotype 26); test: crystal structure; sitting-drop vapour diffusion, 18 C, protein about 7.5 mg/ml in 10 mM Tris pH 8.0, 30 mM NaCl; data at 100 K, Diamond I04
[4] = target: HAdV-D48 fiber-knob protein (human adenovirus D serotype 48); test: as above
[5] = target: Recombinant Human CXADR Fc Chimera Protein (CAR) (human) (UniProt P78310); test: SPR; BIAcore 3000, CM5 chip, about 5000 RU of receptor (CD46, CAR or DSG2) amine-coupled; fiber-knob injected; single cycle kinetics, top concentration around 200 uM with four 1:3 dilutions; 25 C, PBS, 30 ul/min
[6] = target: T1, Recombinant Human CD46 Protein (His Tag) (human, UniProt P15529 35-343); test: SPR
T1 chain: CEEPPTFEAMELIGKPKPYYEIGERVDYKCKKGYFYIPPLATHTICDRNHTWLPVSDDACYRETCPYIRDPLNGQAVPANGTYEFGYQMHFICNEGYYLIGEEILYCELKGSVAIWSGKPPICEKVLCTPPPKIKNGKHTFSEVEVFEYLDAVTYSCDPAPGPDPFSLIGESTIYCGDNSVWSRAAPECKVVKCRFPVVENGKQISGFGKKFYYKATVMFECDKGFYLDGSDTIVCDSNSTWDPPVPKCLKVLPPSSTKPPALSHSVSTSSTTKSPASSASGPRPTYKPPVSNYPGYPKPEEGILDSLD

[7] = target: T1, Recombinant Human CD46 Protein (His Tag); test: SPR
[8] = target: T2, Recombinant Human CXADR Fc Chimera Protein (CAR) (human, UniProt P78310); test: SPR; BIAcore 3000, CM5 chip, about 5000 RU of receptor (CD46, CAR or DSG2) amine-coupled; fiber-knob injected; single cycle kinetics, top concentration around 200 uM with four 1:3 dilutions; 25 C, PBS, 30 ul/min; conditions: both partners purified
T2 construct: human Coxsackie and Adenovirus Receptor (CXADR) part of a commercial Fc chimera; Probably the extracellular domain fused to human IgG1 Fc (recalled); source: bought: R&D Systems
T2 sequence: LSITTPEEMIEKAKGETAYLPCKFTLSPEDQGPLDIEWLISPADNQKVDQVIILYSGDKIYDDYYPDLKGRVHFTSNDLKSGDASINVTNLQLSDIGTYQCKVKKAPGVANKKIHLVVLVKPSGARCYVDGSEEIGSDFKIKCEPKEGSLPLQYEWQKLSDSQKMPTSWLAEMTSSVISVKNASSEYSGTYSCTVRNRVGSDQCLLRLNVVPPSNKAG

[9] = target: T3, Recombinant Human CXADR Fc Chimera Protein (CAR) (human, UniProt P78310); test: SPR
T3 chain: T2 sequence

[10] = target: T3, Recombinant Human CXADR Fc Chimera …; test: SPR

Chain of Recombinant Human Desmoglein-2 Fc Chimera Protein (human) (Q14126 50-609, stated change not applied): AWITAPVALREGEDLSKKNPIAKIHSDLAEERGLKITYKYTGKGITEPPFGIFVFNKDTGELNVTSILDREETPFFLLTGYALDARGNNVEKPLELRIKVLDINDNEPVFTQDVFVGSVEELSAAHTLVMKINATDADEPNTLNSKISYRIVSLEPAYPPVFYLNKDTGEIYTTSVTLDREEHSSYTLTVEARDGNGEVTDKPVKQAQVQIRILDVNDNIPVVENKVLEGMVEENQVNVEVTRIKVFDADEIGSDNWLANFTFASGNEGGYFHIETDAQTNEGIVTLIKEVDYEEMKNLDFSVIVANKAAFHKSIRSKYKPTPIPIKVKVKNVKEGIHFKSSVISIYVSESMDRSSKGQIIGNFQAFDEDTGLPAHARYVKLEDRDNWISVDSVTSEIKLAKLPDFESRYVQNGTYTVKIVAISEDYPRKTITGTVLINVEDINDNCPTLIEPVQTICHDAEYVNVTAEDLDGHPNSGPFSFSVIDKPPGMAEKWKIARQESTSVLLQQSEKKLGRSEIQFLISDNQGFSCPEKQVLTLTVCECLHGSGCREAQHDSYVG

Q: With “HAdV-B3 fiber-knob protein (from UniProt P04501 1-319) (domain or fragment)” as the molecule, how does the Kd [1] read?
A: 66.9 µM

Q: With “HAdV-D26 fiber-knob protein (domain or fragment)” as the molecule, how does the fold weaker affinity (KD) than HAdV-B35K [2] read?
A: > 1500 fold

Q: And the stoichiometry N [3]?
A: 3

Q: With “HAdV-D48 fiber-knob protein (domain or fragment)” as the molecule, how does the stoichiometry N [4] read?
A: 3

Q: What about the fold higher affinity than HAdV-D26K [5] of the same molecule?
A: 2 fold

B1: HAdV-B35 fiber-knob protein (domain or fragment)
chain: TLWTGINPPPNCQIVENTNTNDGKLTLVLVKNGGLVNGYVSLVGVSDTVNQMFTQKTANIQLRLYFDSSGNLLTEESDLKIPLKNKSSTATSETVASSKAFMPSTTAYPFNTTTRDSENYIHGICYYMTSYDRSLFPLNISIMLNSRMISSNVAYAIQFEWNLNASESPESNIATLTTSPFFFSYITEDDN
Q: For B1, which koff [6] is on record?
A: 0.032 s⁻¹

Q: And the Kd [7]?
A: 0.027 µM

B2: HAdV-C5 fiber-knob protein (domain or fragment)
chain: KNNDKLTLWTTPAPSPNCRLNAEKDAKLTLVLTKCGSQILATVSVLAVKGSLAPISGTVQSAHLIIRFDENGVLLNNSFLDPEYWNFRNGDLTEGTAYTNAVGFMPNLSAYPKSHGKTAKSNIVSQVYLNGDKTKPVTLTITLNGTQETGDTTPSAYSMSFSWDWSGHNYINEIFATSSYTFSYIAQE
notes: fiber-knob domain of the fiber protein (pIV) of human adenovirus species C serotype 5; Vector pQE-30 probably adds an N-terminal His6 tag (surmised); also called HAdV-C5K; HAdV-C5 fiber-knob domain
Q: What does the source list for B2?
A: Kd [8]: 0.00076 µM; koff [9]: 0.0016 s⁻¹

B3: HAdV-D26 fiber-knob protein (domain or fragment)
chain: RRTLWTTPDTSPNCKMSTEKDSKLTLTLTKCGSQVLGNVSLLAVTGEYHQMTATTKKDVKISLLFDENGILLPSSSLSKDYWNYRSDDSIVSQKYNNAVPFMPNLTAYPKPSAQNAKNYSRTKIISNVYLGALTYQPVIITIAFNQETENGCAYSITFTFTWQKDYSAQQFDVTSFTFSYLTQE
Q: How did the Kd [10] turn out when B3 was run?
A: 21 µM

B4: HAdV-D48 fiber-knob protein (domain or fragment)
chain: DKLTLWTTPDPSPNCKIDQDKDSKLTFVLTKCGSQILANMSLLVVKGKFSMINNKVNGTDDYKKFTIKLLFDEKGVLLKDSSLDKEYWNYRSNNNNVGSAYEEAVGFMPSTTAYPKPPTPPTNPTTPLEKSQAKNKYVSNVYLGGQAGNPVATTVSFNKETGCTYSITFDFAWNKTYENVQFDSSFLTFSYIAQE
Q: B4 was tested. Which Kd [10] did it give?
A: 9.3 µM

Q: And the koff [9]?
A: 0.0024 s⁻¹
